{"source": "patent US20150037312A1", "about": "(University of Washington, published 2015)", "binders": {"B1": {"name": "FcB6.1 (designed binder)", "chain": "PEEALIVVDMQRDFMPGGALPVPEGDKIIPKVNEYIRKFKEKGALIVATRDWHPENHISFRERGGPWPRHCVQNTPGAEFVVDLPEDAVIISKATEPDKEAYSGFEGTDLAKILRGNGVKRVYICGVATEYCVSRTAVDALKHGFEVYLLRDAVKGIKPTFEQQSFFYMSLKGIKIVQF", "notes": "Clone from the pH 8 selection of the focused library; also called Fc24.47"}}, "molecular_target": "T1, Rituximab (human IgG1), biotinylated (human)", "T1 construct": "Whole IgG; In the first screen it was oligomerized with streptavidin-phycoerythrin; in SPR it was captured on a streptavidin chip; also called Rituxan; IgG1 Rituxan", "assay": "titration of biotinylated Rituxan on yeast displaying the clone; pH 8 implied", "method": "We then determined the Kd of exemplary isolated clones for IgG at different pHs. Measurements were taken via titrations of biotinylated Rituxan (Rituximab) using yeast surface display as discussed in the materials and methods sections.\nYeast cells (EBY100) containing plasmid encoding the designs, were grown overnight at 30° C. in SDCAA medium. For induction, they were sub-cultured into SGCAA to achieve an O.D. of 1, and grown at 22° C. for 16-20 h. Cells were washed once with PBS containing 0.5% BSA (PBS-BSA), before adding 700 nM biotinylated IgG (Rituximab) into a total volume of 50 μl of the same buffer. […] Cells were washed once with ice cold PBS-BSA immediately before measuring their fluorescence via an Accuri C6 flow cytometer, data was analyzed using the FlowJo 7.6.1 and 8.8.7 software."}
{"binder": "B1", "values": [{"measurement": "Kd", "result": "~2", "unit": "nM"}]}
